Reference: the MegaScale stability set (Tsuboyama et al. 2023)

B1: EEHEE_rd4_0003 (parent)
chain: KKVTINGVEIKFNNPEEAVKFALELAKRLNLRIEFHGDQIKIE

Variants of: B1
Assay: folding stability dG (cDNA display proteolysis); higher = more stable
Conditions: PBS, room temperature

Folding stability dG [kcal/mol] of substitutions, site by site:
A26: Q 1.78, D 0.982, G 1.91, L 2.52, K 1.66, T 1.92, N 1.43, V 2.26, M 2.37, S 2.23, W 2.14, H 1.47, Y 2.29, E 1.33, C 2.98, P 1.19, I 2.3, R 1.73, F 2.56
P15: C 3.65, M 2.97, T 2.74, H 2.84, Q 2.48, Y 3.14, F 3.12, V 2.67, K 2.47, R 2.79, E 2.52, L 2.9, D 2.46, I 2.85, N 2.45, S 2.77, W 3.67, A 2.78, G 2.53
A18: I 2.45, W 2.78, T 1.88, K 1.52, M 2.47, C 3.5, E 1.47, H 1.7, G 2.01, R 1.72, Q 1.61, D 1.41, Y 2.36, V 2.48, S 1.93, F 2.79, N 1.75, L 2.59, P 1.64
E17: I 2.36, Q 2.48, S 2.39, Y 2.56, V 2.25, N 2.24, G 2.2, C 4.22, R 2.16, A 2.68, P 1.9, D 2.68, H 2.23, L 2.56, M 2.49, F 2.36, T 2.26, W 2.84, K 2.3
E24: N 2.35, K 2.4, L 2.66, M 2.73, W 3.15, S 2.49, I 2.49, Y 2.73, A 2.88, D 2.46, F 2.58, H 2.23, P 1.47, Q 2.57, T 2.43, G 2.28, R 2.55, C 4.19, V 2.35
L23: S 1.88, F 2.46, T 2.29, I 2.57, W 2.35, H 1.95, D 1.47, V 2.29, E 2.12, Q 2.13, G 1.43, Y 2.43, P 0.007, M 2.52, A 1.91, C 3.18, K 2.17, R 2.19, N 1.95
N30: K 2.55, A 2.23, D 1.9, M 2.43, G 2.65, C 3.46, L 2.51, Q 2.38, V 2.29, F 2.55, Y 2.42, E 1.86, T 2.12, I 2.34, H 2.47, W 2.72, S 2.2, P 1.82, R 2.61
N13: M 2.66, P 2.53, S 2.69, R 2.84, V 2.46, T 2.61, Y 2.39, W 2.6, Q 2.54
E16: W 2.99, F 2.69, I 2.59, K 2.48, Y 2.7, A 2.61, D 2.53, H 2.47, P 2.08, T 2.46, S 2.54, N 2.43, C 3.56, G 2.48, R 2.6, L 2.69, M 2.66, Q 2.6, V 2.53
F21: V 1.74, N 1.27, D 0.978, A 1.85, R 1.76, C 3.19
